For two substances, Kd results are on record in publication PMC5567082.

The assay addresses polyhistidine-tagged canine PD-L1 protein (cPD-L1-His) (dog). The assay is described as follows: SPR; Biacore X100, CM5 chip, His Capture Kit: cPD-L1-His captured by immobilised anti-histidine antibody (approximately 400 RU); cPD-1-Ig or cCD80-Ig flowed over; HBS-EP+ running and dilution buffer; two state reaction model.

pKd: −log10 of the molar value.

Turning to “recombinant canine CD80 protein fused to rabbit IgG Fc (cCD80-Ig) (Fc fusion)”, the negative logarithm of the Kd (pKd) is 7.61.

Substance “recombinant canine PD-1 protein (cPD-1-Ig) (Fc fusion)” gave a pKd of 7.60.
